Results on twelve molecules are retold here after patent US20080207449A1 (CROPDESIGN N V, published 2008).

For experiment [1], the target named is T1, empty pGBT9 (GAL4 DNA-binding domain alone) (UniProt P04386 1-147).
T1 construct: empty bait vector, control for specificity; also called pBGT9
In words: yeast two-hybrid, growth on His- minimal medium; empty bait vector control; legend: -, no interaction. The procedure: (§1) Different combinations between bait (pGBTE2Fa226-356, pGBTE2Fb-Rb, or pGBTE2Fb 1-127, SEQ ID NO:207) and prey constructs were transformed into yeast cells and assayed for their ability to grow on His⁻ minimal media after 3 days of incubation at 30° C. Bait plasmids co-transformed with empty pAD-GAL424 and prey plasmids co-transformed with empty pGBT9 were assessed along as controls for the specificity of the interaction.
(§2) Different combinations between AtE2Fs bait and AtDPs prey constructs were tested for growth on His minimal media. −, no interaction; +, positive interaction; NT, not tested.

Experiment [2] addresses T2, pGBTE2Fb-Rb: GAL4 DNA-binding domain fusion of AtE2Fb amino acids 1-385 (lacking the Rb-binding domain) (Arabidopsis).
T2 construct: also called E2F3 N-terminal; E2Fb (=E2F3) N-terminal domain
In words: yeast two-hybrid, growth on His- minimal medium; legend: -, no interaction.

Experiment [3] deals with T3, pGBTE2Fa226-356: GAL4 DNA-binding domain fusion of AtE2Fa amino acids 226-356 (Arabidopsis).
T3 construct: also called E2F5 dimerisation domain; E2Fa (=E2F5) dimerization domain
The experiment is described as above.

The target in experiment [4] is T4, HA-tagged wild-type AtE2Fb, in vitro translated (Arabidopsis, UniProt Q9FV71 1-469).
T4 construct: wild-type (whole) protein; also called HA-AtE2Fb; E2F3
Briefly: co-immunoprecipitation (anti-c-myc) of in vitro co-translated tagged proteins, SDS-PAGE autoradiography. The procedure: In vitro transcription and translation experiments were performed using the TNT T7-coupled wheat germ extract kit (Promega) primed with appropriate plasmids for 90 min at 30° C. For immunoprecipitation, 10 μl of the total in vitro translated extract (50 μl) was diluted at 1:5 in Nonidet P40 buffer (50 mM Tris, pH 7.4, 150 mM NaCl, 1% Nonidet P40, 1 mM phenylmethylsulfonyl fluoride, 10 μg/ml leupeptin/aprotinin/pepstatin) and incubated for 2 h at 4° C. with anti-c-myc (9E10; BabCo) or anti-HA (16B12; BabCo) antibodies. Protein-A-Sepharose (40 μl 25% (v/v)) was added and incubated for 1 h at 4° C., then the beads were washed four times with Nonidet P40 buffer. Immune complexes were eluted with 10 μl […] sodium dodecyl sulfate (SDS) sample buffer and analyzed by 10% or 15% SDS-PAGE and by autoradiography.
Similar results were obtained by two-hybrid analysis (see Table 5 of Example 12). To test whether the structural requirements for heterodimerization of the AtDPs were similar to those of their animal homologs, several deletion mutants of AtDPa and AtDPb were constructed (for a schematic illustration, see FIGS. 52 and 53), tagged with the c-myc epitope (FIGS. 54 and 55, panels A). The interactions between the mutant AtDPs and AtE2Fb were analyzed in immunoprecipitation experiments with the specific anti-HA or anti-c-myc antibodies ([…], panels B and C, respectively). […]

In experiment [5] the target is T2, pGBTE2Fb-Rb: GAL4 DNA-binding domain …. In words: yeast two-hybrid, growth on His- minimal medium; legend: +, positive interaction. The procedure: as §1, §2
Experiment [6] addresses T5, pGBT DPa 1-292: GAL4 DNA-binding domain fusion of AtDPa 1-292 (Arabidopsis thaliana).
T5 construct: its construction is not described
In words: yeast two-hybrid, growth on His- minimal medium; legend: -, no interaction.

Experiment [7] has as its target T3, pGBTE2Fa226-356: GAL4 DNA-binding …. In words: yeast two-hybrid, growth on His- minimal medium; legend: +, positive interaction. The procedure: as §1, §2

T4 sequence (Q9FV71 1-469, tags or fused parts left off): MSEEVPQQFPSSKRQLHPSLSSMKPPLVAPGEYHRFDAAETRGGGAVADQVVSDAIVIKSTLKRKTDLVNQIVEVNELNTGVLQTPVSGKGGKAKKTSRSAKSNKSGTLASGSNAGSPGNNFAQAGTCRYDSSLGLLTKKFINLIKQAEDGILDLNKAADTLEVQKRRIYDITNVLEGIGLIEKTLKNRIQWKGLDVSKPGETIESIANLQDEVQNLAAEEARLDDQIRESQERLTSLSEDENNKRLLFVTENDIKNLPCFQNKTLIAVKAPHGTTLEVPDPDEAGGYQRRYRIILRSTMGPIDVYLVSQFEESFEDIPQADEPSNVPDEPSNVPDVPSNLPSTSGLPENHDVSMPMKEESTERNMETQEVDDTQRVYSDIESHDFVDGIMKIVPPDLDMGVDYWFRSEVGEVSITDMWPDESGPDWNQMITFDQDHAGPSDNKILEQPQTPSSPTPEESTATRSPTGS

B1: GAL4 transactivation domain fusion of AtDPa 172-292 (prey in pAD-GAL424) (other, not shown: large carriers)
chain: SLESLMSRNQEMVVKTQGPAEGFTLPFILLETNPHAVVEIEISEDMQLVHLDFNSTPFSVHDDAYILKLMQEQKQEQNRVSSSSSTHHQSQHSSAHSSSSSCIASGTSGPVCWNSGSIDTR
Take B1: the binding result in experiment [1], in experiment [2] and in experiment [3] was “no binding” each time.

B2: GAL4 transactivation domain fusion of AtDPa 42-142 (prey in pAD-GAL424) (other, not shown: large carriers)
chain: EKKGQSRTSGGGLRQFSVMVCQKLEAKKITTYKEVADEIISDFATIKQNAEKPLNENEYNEKNIRRRVYDALNVFMALDIIARDKKEIRWKGLPITCKKDV
As for B2, the binding result in experiment [1], in experiment [2] and in experiment [3] was “no binding” in each case.

B3: GAL4 transactivation domain fusion of AtDPa 1-142 (prey in pAD-GAL424) (other, not shown: large carriers)
chain: MSMEMELFVTPEKQRQHPSVSVEKTPVRRKLIVDDDSEIGSEKKGQSRTSGGGLRQFSVMVCQKLEAKKITTYKEVADEIISDFATIKQNAEKPLNENEYNEKNIRRRVYDALNVFMALDIIARDKKEIRWKGLPITCKKDV
Consider B3, for which the binding result in experiment [1], in experiment [2] and in experiment [3] was “no binding” throughout.

B4: c-myc-tagged AtDPb 1-193, in vitro translated (other)
chain: EQKLISEEDLEQKLISEEDLMTTTGSNSNHNHHESNNNNNNPSTRSWGTAVSGQSVSTSGSMGSPSSRSEQTITVVTSTSDTTFQRLNNLDIQGDDAGSQGASGVKKKKRGQRAAGPDKTGRGLRQFSMKVCEKVESKGRTTYNEVADELVAEFALPNNDGTSPDQQQYDEKNIRRRVYDALNVLMAMDIISKDKKEIQWRGLPRTSLSDIEE
notes: also called c-myc-AtDPb 1-193
On to B4, for which, in experiment [4], the binding result was “no binding”.

B5: GAL4 transactivation domain fusion of AtDPa 1-292 (prey in pAD-GAL424) (other, not shown: large carriers)
chain: MSMEMELFVTPEKQRQHPSVSVEKTPVRRKLIVDDDSEIGSEKKGQSRTSGGGLRQFSVMVCQKLEAKKITTYKEVADEIISDFATIKQNAEKPLNENEYNEKNIRRRVYDALNVFMALDIIARDKKEIRWKGLPITCKKDVEEVKMDRNKVMSSVQKKAAFLKELREKVSSLESLMSRNQEMVVKTQGPAEGFTLPFILLETNPHAVVEIEISEDMQLVHLDFNSTPFSVHDDAYILKLMQEQKQEQNRVSSSSSTHHQSQHSSAHSSSSSCIASGTSGPVCWNSGSIDTR
notes: also called full-length AtDPa prey
For B5, the binding result in experiment [5] is on record as “binds”; in experiment [6], “no binding”.

B6: GAL4 transactivation domain fusion of AtDPa 42-292 (prey in pAD-GAL424) (other, not shown: large carriers)
chain: EKKGQSRTSGGGLRQFSVMVCQKLEAKKITTYKEVADEIISDFATIKQNAEKPLNENEYNEKNIRRRVYDALNVFMALDIIARDKKEIRWKGLPITCKKDVEEVKMDRNKVMSSVQKKAAFLKELREKVSSLESLMSRNQEMVVKTQGPAEGFTLPFILLETNPHAVVEIEISEDMQLVHLDFNSTPFSVHDDAYILKLMQEQKQEQNRVSSSSSTHHQSQHSSAHSSSSSCIASGTSGPVCWNSGSIDTR
B6: the binding result in experiment [5] and in experiment [7] was “binds” throughout.

B7: GAL4 transactivation domain fusion of AtDPb 182-385 (prey in pAD-GAL424) (other, not shown: large carriers)
chain: GLPRTSLSDIEELKNERLSLRNRIEKKTAYSQELEEQYVGLQNLIQRNEHLYSSGNAPSGGVALPFILVQTRPHATVEVEISEDMQLVHFDFNSTPFELHDDNFVLKTMKFCDQPPQQPNGRNNSQLVCHNFTPENPNKGPSTGPTPQLDMYETHLQSQQHQQHSQLQIIPMPETNNVTSSADTAPVKSPSLPGIMNSSMKPEN
With B7, the binding result in experiment [5] and in experiment [7] was “binds” each time.

B8: GAL4 transactivation domain fusion of AtDPa 121-292 (prey in pAD-GAL424) (other, not shown: large carriers)
chain: IIARDKKEIRWKGLPITCKKDVEEVKMDRNKVMSSVQKKAAFLKELREKVSSLESLMSRNQEMVVKTQGPAEGFTLPFILLETNPHAVVEIEISEDMQLVHLDFNSTPFSVHDDAYILKLMQEQKQEQNRVSSSSSTHHQSQHSSAHSSSSSCIASGTSGPVCWNSGSIDTR
Regarding B8, the binding result in experiment [5] and in experiment [7] was “binds” throughout.

B9: GAL4 transactivation domain fusion of AtDPb 1-193 (prey in pAD-GAL424) (other, not shown: large carriers)
chain: MTTTGSNSNHNHHESNNNNNNPSTRSWGTAVSGQSVSTSGSMGSPSSRSEQTITVVTSTSDTTFQRLNNLDIQGDDAGSQGASGVKKKKRGQRAAGPDKTGRGLRQFSMKVCEKVESKGRTTYNEVADELVAEFALPNNDGTSPDQQQYDEKNIRRRVYDALNVLMAMDIISKDKKEIQWRGLPRTSLSDIEE
On to B9, for which the binding result in experiment [2] and in experiment [3] was “no binding” throughout.

B10: c-myc-tagged AtDPa 1-142, in vitro translated (other)
chain: EQKLISEEDLEQKLISEEDLMSMEMELFVTPEKQRQHPSVSVEKTPVRRKLIVDDDSEIGSEKKGQSRTSGGGLRQFSVMVCQKLEAKKITTYKEVADEIISDFATIKQNAEKPLNENEYNEKNIRRRVYDALNVFMALDIIARDKKEIRWKGLPITCKKDV
notes: also called c-myc-AtDPa 1-142
B10: the binding result in experiment [4] is listed as “no binding”.

B11: GAL4 transactivation domain fusion of AtDPb 182-263 (prey in pAD-GAL424) (other, not shown: large carriers)
chain: GLPRTSLSDIEELKNERLSLRNRIEKKTAYSQELEEQYVGLQNLIQRNEHLYSSGNAPSGGVALPFILVQTRPHATVEVEI
Take B11: the binding result in experiment [5] is “binds”; in experiment [7], “binds”; in experiment [1], “no binding”.

B12: GAL4 transactivation domain fusion of AtDPa 121-213 (prey in pAD-GAL424) (other, not shown: large carriers)
chain: IIARDKKEIRWKGLPITCKKDVEEVKMDRNKVMSSVQKKAAFLKELREKVSSLESLMSRNQEMVVKTQGPAEGFTLPFILLETNPHAVVEIEI
In the case of B12, the binding result in experiment [1], in experiment [2] and in experiment [3] was “no binding” in each case.
